{"source": "paper PMC13483453", "about": "“Ewing sarcoma breakpoint region 1 (EWSR1) protein binds to nonstructural protein 2 and non-coding regions of chikungunya virus genome to inhibit virus replication”", "key": {"[1]": {"target": "Recombinant histidine-tagged EWSR1 (Ewing sarcoma breakpoint region 1 protein) (UniProt Q01844)", "sequence (Q01844 whole entry)": "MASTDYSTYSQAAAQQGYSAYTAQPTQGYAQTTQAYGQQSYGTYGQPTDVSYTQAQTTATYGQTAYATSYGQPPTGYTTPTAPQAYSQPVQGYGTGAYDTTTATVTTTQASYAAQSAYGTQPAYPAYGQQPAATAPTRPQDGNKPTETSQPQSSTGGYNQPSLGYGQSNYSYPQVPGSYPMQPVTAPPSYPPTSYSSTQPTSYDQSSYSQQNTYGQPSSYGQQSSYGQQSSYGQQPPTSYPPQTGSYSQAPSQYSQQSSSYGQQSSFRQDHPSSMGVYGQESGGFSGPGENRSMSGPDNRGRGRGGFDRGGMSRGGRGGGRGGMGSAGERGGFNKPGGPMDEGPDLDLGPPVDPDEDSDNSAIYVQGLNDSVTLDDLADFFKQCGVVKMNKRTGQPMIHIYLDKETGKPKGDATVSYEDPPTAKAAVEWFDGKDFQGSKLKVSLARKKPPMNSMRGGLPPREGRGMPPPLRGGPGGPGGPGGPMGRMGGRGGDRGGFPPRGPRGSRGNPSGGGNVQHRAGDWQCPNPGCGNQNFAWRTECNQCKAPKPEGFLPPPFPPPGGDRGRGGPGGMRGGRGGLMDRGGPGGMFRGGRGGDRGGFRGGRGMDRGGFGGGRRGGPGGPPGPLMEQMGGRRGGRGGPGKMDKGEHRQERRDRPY", "test": "BLI"}, "EWSR1 [2]": {"target": "T1, EWSR1 (UniProt Q01844 1-656)", "T1 sequence (Q01844 whole entry)": "as above", "test": "BLI; 2:1 binding model", "conditions": "protein: recombinant; tags: N-terminal 6xHis (pET28a)"}, "CHIKV nsP2 [3]": {"target": "T2, CHIKV nsP2 (Chikungunya virus, UniProt Q8JUX6 536-1333)", "test": "EMSA; polyIC; figure description says weak", "conditions": "protein: recombinant; tags: His6-SUMO removed"}, "EWSR1 [4]": {"target": "T1, EWSR1", "test": "EMSA", "conditions": "protein: recombinant; tags: N-terminal 6xHis (pET28a)"}, "CHIKV nsP2 [5]": {"target": "T2, CHIKV nsP2", "test": "EMSA", "conditions": "protein: recombinant; tags: His6-SUMO removed"}, "CHIKV nsP2 [6]": {"target": "T2, CHIKV nsP2", "test": "BLI; 2:1 binding model", "conditions": "protein: recombinant; tags: His6-SUMO removed"}, "EWSR1 [7]": {"target": "T1, EWSR1", "test": "EMSA; polyIC", "conditions": "protein: recombinant; tags: N-terminal 6xHis (pET28a)"}, "CHIKV nsP2 [8]": {"target": "T2, CHIKV nsP2", "test": "EMSA; polyIC", "conditions": "protein: recombinant; tags: His6-SUMO removed"}}, "data": [{"molecule": "Full-length CHIKV nsP2 protein (recombinant) (from UniProt Q8JUX6 536-1333) (enzyme)", "values": [{"measurement": "Kd", "setting": "[1]", "value": 716, "unit": "nM"}]}, {"molecule": "UCUCUUGCUUUGCAGAGUAGAGCAGUAAGAAACUGGUAGGCUACGUGUGU (ssRNA)", "note": "[5NCR-RC50]", "values": [{"measurement": "Kd", "setting": "EWSR1 [2]", "value": "80.2 ± 0.39", "unit": "nM"}, {"measurement": "binding result", "setting": "CHIKV nsP2 [3]", "value": "binds"}]}, {"molecule": "GUGAUUCAGAGGUUUUUGACUUUAGUAAAUCGCCCAUCCUUUGAUAGA (ssRNA)", "note": "[Random48]", "values": [{"measurement": "binding result", "setting": "EWSR1 [4]", "value": "no binding"}, {"measurement": "binding result", "setting": "CHIKV nsP2 [5]", "value": "binds"}]}, {"molecule": "UCCGAACCCACAGGGACGUAGGAGAUGUUAUUUUGUUUUUAAUAUUUC (ssRNA)", "note": "[3NCR48]", "values": [{"measurement": "Kd", "setting": "EWSR1 [2]", "value": "91.4 ± 0.37", "unit": "nM"}, {"measurement": "Kd", "setting": "CHIKV nsP2 [6]", "value": "92.9 ± 1.6", "unit": "nM"}]}, {"molecule": "GUUUUUAAUAUUUC (ssRNA)", "note": "[14-mer of 3NCR48]", "values": [{"measurement": "binding result", "setting": "EWSR1 [7]", "value": "binds"}, {"measurement": "binding result", "setting": "CHIKV nsP2 [8]", "value": "binds"}]}]}
